From the supplement of paper PMC11502859

System: HEK293T
Experiment: median enrichment of reporter reads in eGFP-reduced (low/intermediate) vs eGFP-high sorted cells (eGFP-extension fusion abundance) (ratio); higher = stronger loss of eGFP-fusion protein abundance (more destabilising extension)
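Also: lentiviral eGFP-IRES-mCherry reporter pool sorted by FACS 96 h post-transduction, gated on mCherry-high cells, Illumina read counts normalized per million, median across four biological replicates.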

Substance | median enrichment
CAPAERRLETGATASRVQQHSRHGSGRDSAWPRGTFPGQGPGGNWHGLVPLLCCILIPQPAPLGSDLSCPRAEPGGPEGEMNP [ANKRD13B] | 6.25
GHPTPVPWRGSGPTLHNCLSRTVQTKGPAWKE [SLC37A1] | 2.83
FFFFF [Phe05] | 7.46
CGRPELSRPPPALLGAGVLDPWHLPGPLT [LLGL1] | 2.46
QLYSTKIFKDWFLF [DIS3] | 11.1
QAASWRFEDAAFGLDEFQILLACFLILICLYTYTLCTKLFLIHGLLNPQMWSPWIRKARCTLNDK [B2M] | 11.1
SYKPA [WDR97] | 0.947
QDGWGWR [SCPEP1] | 0.778
LFILEINLTNVMNVEKLLRGSWPLVNTREFILERNPTFVKNVAKPLSAPQPLQATREFIWKRDLTNVKNAAKPVFLRPD [ZNF727] | 15.7
SVIPGLSTPASPPAAGTALTLLSDPHSFPEMLRMFISPAPDPMSPGLRVCFPHIGLTVSL [KLK5] | 12.1
YLVIHAFFPGQGSRVTRPPETSQEARALFK [SNX19] | 13.6
SVPLSHPYL [KLK2] | 0.37
GWVRISTTFLDTVK [HBS1L] | 11.5
KKVGTMRGVGYP [Degron APPBP2] | 4.39
YPVTPRDCLVQVVAAGGTHAAPRSEQTLPCRPAPAGPDGPLWRLDLLGQAALGLSAPSCLSRCDRARPKPGCTLLDWASLHCL [MLST8] | 4.58
CGAARRSR [METAP1D] | 1.33
LSCPDAME [MYH2] | 0.416
WLVGLGSSARTSSPALAVVVQALQSAAGLFIKGIYICK [NRN1L] | 7.25
FILERNSTNVKNVTKLLSISLTLLHIRKFILEKNPTDVKNVAKPLSTPLNLLHIRDFILERNPTDVNNVVKLFTYPHTLLHIR [ZNF626] | 8.24
SHGGVRSCPCSESTFPAIPGAGGACASAIPCDQAPRGRDQRGRKHCACAELSASARRASLPNQPWVPGSRLEPAINSLFLAPG [TSSK6] | 4.1
CCCCCCCCC [Cys09] | 7.96
WADPGYVPYPRGLSIDRDYIITWLEVKGSIQVLHLVLPCLLSDHSDGLMWLLMWNCRRVQRRVCNKAIGKHTGAFPSPSGPRP [HS3ST3B1] | 4.31

Substance | median enrichment
SFQNWMDFYFFQ [CCDC169] | 19.6
SEPSHSLSPLPCLPHLPPTTRA [RAB3A] | 0.136
KARFLAVQFLLKVPLFPKSNY [HBB] | 5.47
LFQPGPKPTGVCGRARTQEV [DNMT3B] | 3.86
WADPVGIRAAPSGAGTAGTAAILLLLVFFLLSKINCGNILVSCDVRCSFVVKFAIDIEIMTSVFPEIKHVSTQDFLDHSRKCQ [KISS1R] | 10.9
QSSYPLEEDCFQII [KDSR] | 0.764
CVETCAPRRGAAVREGLCTAAPATDPVRKYLLGASPGLGLGMRWSPGLSFLSTQWVILASTCRAPCQALPTHLPV [OLFML2A] | 7.4
SNSLRLAAPLGFLPCRTCLEVLPGGGGRGRLDLLS [AQP6] | 3.45
QDFMHSSERVTVTTVLSPISHKLLFVSKRMLLLLHCFPFAGTCWCLLLNWPALLAVWHCSLGRLLCSLYLHYRLVNLPTSSL [DCUN1D4] | 6.12
SPYPVPRCTNRWGPAPFLPGPHGPLSQEPRPLTSCPLEMVQHSGIYHPHLGPLQPPIKG [MYH14] | 5.6
CASTRAVGDSCPHLCPRAASCLALPPHSPPGMGLLLPGSLKETAAC [FAM160B2] | 6.35
RGDAVGLAEPRFSHQQGECWPDTSEDPGLVIICLGGTG [GMPPB] | 7.69
EGLPFPKPRVMSNCNQAQNQRPGCEIHTSLELVVSSWPQQLFPVLTG [PHF11] | 7.37
EKHLKC [FAN1] | 0.297
GGQCLPAPPLASSSAPRVPSVDPIRPAMASYSKMV [ACO2] | 0.291
WVPSEVFIPACVI [VPS13B] | 13.3
WLHNPVYAFCTKKK [ZSCAN5A] | 8.24
SGSVTRCSLIPADLTGPLANPTSNQKCSSVESETGKWLLQDYSLLQKRNQIHEWKSLCKFNFITHNMYYFF [PUM1] | 8.89
WGYWPTLWAPCSA [EFCC1] | 7.99
CCQDSCALRCK [MT1X] | 0.374
QAVFNLLLNWVFLALILIINHNL [FAM47A] | 5.56
RYPGASPVTVTAAPPPRLLSASNHLDSPEESPMETALIRCPAAARGPRSPRVPLKECLGHIRPARSRERAPNARPG [CUX1] | 4.54

Substance | median enrichment
KGPEPGWGISAGQRRRLSQLFPDIQGHCSLLPSRTSLLPPTMAGGEQVSQKHPVPRMVLCACPSLLGLPFPLLREDVSLLTCT [KIRREL1] | 7.38
LETIMKKRVHISISKS [CTLA4] | 37.7
YQHWPSVFLGGTSQEPLPALLESQRGQEAVAGASTQLG [GDF5] | 1.15
LNCSQLEML [DNAJC24] | 0.695
GGGGG [Gly05] | 1.79
QGTCPGSS [UBE2T] | 0.477
SGLELYPGPNSRTTRGLQTFLGGQAGQMAPPLGNAPSCAVERS [ELF3] | 2.16
YKPRDGGCLAMAGR [DMRTC2] | 0.676
RHVIP [NPFF] | 0.57
YQNNGFL [GNL3] | 1.22
KLDLII [OR4S2] | 1.99
KVPMSQPGLWLPSIPSPEMAPWDEEGRVGCWCRIKIWQDRLPQGHRPLPPTRTPPTQLPLRVL [ITGA7] | 17.1
SSSSSSSSSS [Ser10] | 0.553
CCCC [Cys04] | 2.06
RMSSFIRIWALSSFFSTHFPLPGPPLIQMPPSDSSWKPFLQLGQYDF [MSANTD2] | 33.9
CDPCKWDSPPVHEAWLLQYLLVEELYSKMKRKNKQTNKKKHKKRKNTFLYLTMFFEYVFFL [RBFOX2] | 0.264
QSPSAARKCWSWSKIGFFKIFLVIREYI [PSD3] | 7.26
LARAPSGGITDLMTTLALLPCRVQVLSPHFHLPAPRGPFPFMGLPPSDAQEGSSAMTGLLPLTSREHPLDLGRWWSQGWAAYF [PCDH1] | 6.44
LMGCSLLLSFLGLLCFAVLENHKERNSYGEVRKTEKDSCVKLFFACKLLHFKRPPLFLQRTFFAQLWTLSMVP [DLX5] | 11.5
SAPYWPAGPPPPAAGQLPNGPFQGLTLHPFSVDFLARAPSGGITDLMTTLALLPCRVQVLSPHFHLPAPRGPFPFMGLPPSDA [PCDH1] | 3.42
YKCGKAFTKSSYCVQHLKFNTEQMQYKCNDSGRTFIILEGL [ZNF736] | 22.3
WEDRPAASWSREASVIAHTQFRFPPLYRQEVNLPGAEHPPKESPLNNTPPPRQECPNPNDPSFPNE [EDN3] | 0.582

Substance | median enrichment
CCP [RUBCNL] | 0.512
SHFKLTL [PTGIR] | 1.1
WGRDSVPLAVLPSLLVCQASPPTTPHQATPAASAFLGAERQPRPPVPSPPSHHRSSAPGRTVWPLPVPAMGSGWTPWAPPIAK [CAPN1] | 7.5
SISPSC [OR5AK2] | 0.461
WGPVHAGGLRDPHNPQTQSPRALPKPLAWLQSRLRAGATYPCAGTCSLCSVLITPP [RUSC2] | 7.23
ETGPTHHSPSPSISTWCLVPVHSVNKKP [KLK11] | 2.42
SVHQLPAPALAPTPSSLKHPPAHCGQLCATRAHGAPPVL [BAIAP3] | 1.3
RGPEASWVSLGPQKLIKE [PCP2] | 0.815
YIPVSIQKSNKKFSVKCAILLCVL [RPL11] | 0.764
QRFSSEKNLCLIF [PHACTR3] | 9.78
YICLASPPSVFSTQRRREPAVPCRREEGLLDPRLSPSALRTPCPDSLLMVGPLCSSLPVGSLSSLTWIRFGFSTSLPQRKDYS [KRT13] | 6.15
SSSSS [Ser05] | 0.298
LVLLVLLICRCHRTAVTRFLIVPAQPCPRTLGCMSHNMDPG [TREML4] | 3.13
SECTLQSWWFLRVGLDRVAAC [BPHL] | 7.67
RELHYPFPSQTTN [MDC1] | 0.473
TTMERWAVAMVDGLPGWAFELALGTTRLSLSSHGTQKCAAMLPRVLSPHLSQPSWRPGLSLQPLGPALIAGGQALDLEGLAHP [ADGRG1] | 5.12
SGGLPRRAKMAEMILKITEEREDQPEFPLDICVFLFFYFVLFFLLLLLP [SOX9] | 4.3
YNIVYVFCHL [KIAA1586] | 8.8
YTLGKITYLSSCE [OR10G8] | 13.7
RPLLRVCPAPFHQ [DYRK4] | 1.43
EEEE [Glu04] | 8.36
CPQPGY [B3GNT7] | 0.431

Substance | median enrichment
VGIRAAPSGAGTAGTAAILLLLVFFLLSKINCGNILVSCDVRCSFVVKFAIDIEIMTSVFPEIKHVSTQDFLDHSRKCQTFSQ [KISS1R] | 7.04
PHAQSPPIPHAAPPQSQATSCLLLVGGGLLSPSSLTFNLTLTLHRAPTLHPSWKAGLMASHWPPPPDQSVLFRGLAPFPVSLK [LGALS9] | 5.55
RQLQELNSLAPEELAAQEAKLAF [TMEM81] | 0.0302
LFSFQILGTETI [FBXO4] | 14.6
WVSAVLGTPAHSTLLEYLFPNATSVCFFLFPQSLSVSEPWAL [LALBA] | 10.8
EILGSKYTSLFKNSNLI [OR10G4] | 11.8
YLTLPIS [OR5AS1] | 15.4
RGTLRSPKTSSCWGPHEGTSTLWGVARKRQALQLGDPIWKRDSDLPTSSSSFSTKAPVDSREVVKIFFSPIFLPASGDTAAVT [PGPEP1] | 2.83
EVHTVCHRMAHVIAHFCVDMVLV [ATP5IF1] | 11
CSWSRG [MLIP] | 6.67
WSLRWSFVTARFARHLPGWLVLG [ARHGEF26] | 15.8
WATLSVGFFLEDSTLLPHVLSQLQS [CSTF1] | 4.6
LSPQMGAEIFQSLEFFQ [ZNF112] | 0.686
YNFFHLRNYCDL [CHD6] | 19.1
LWDNHKVWKLGLK [BCO2] | 4.23
KRQK [CCR2] | 0.621
YGDNSPVSKPGCQIQ [KIR3DL2] | 3.37
LEHWDAHRPFPSAARRACCGIYCGEHCIGMSGKSLYNLLQPSHLYNSLILFSFHNKMVYKNRSVCDVIGSNHPVLSSHSSW [COX10] | 1.73
QFLC [BEST3] | 0.953
RMLEAFIHL [ZNF248] | 1.59
LLKTCSTTVLDTH [ATF2] | 8.11
KKK [Lys03] | 0.373
